One molecule from patent EP4676952A2 (dated 2026) can be followed below.

One test deals with T1, C2b fragment of human C2 (human, UniProt P06681 21-243).
T1 construct: domain: C2b; also called smaller fragment C2b
T1 sequence (looked up): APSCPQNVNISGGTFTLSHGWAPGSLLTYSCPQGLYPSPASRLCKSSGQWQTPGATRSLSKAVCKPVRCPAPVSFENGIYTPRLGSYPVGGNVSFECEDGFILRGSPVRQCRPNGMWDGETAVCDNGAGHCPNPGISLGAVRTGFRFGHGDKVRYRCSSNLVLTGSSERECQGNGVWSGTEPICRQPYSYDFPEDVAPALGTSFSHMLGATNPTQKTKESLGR
Put plainly: pull-down of C1s-cleaved C2 with His-tagged nanobody on cobalt resin, western blot with goat anti-C2 polyclonal antibody.

For test [1], the target named is T2, human C2b (small fragment of C2) (human, UniProt P06681).
T2 chain: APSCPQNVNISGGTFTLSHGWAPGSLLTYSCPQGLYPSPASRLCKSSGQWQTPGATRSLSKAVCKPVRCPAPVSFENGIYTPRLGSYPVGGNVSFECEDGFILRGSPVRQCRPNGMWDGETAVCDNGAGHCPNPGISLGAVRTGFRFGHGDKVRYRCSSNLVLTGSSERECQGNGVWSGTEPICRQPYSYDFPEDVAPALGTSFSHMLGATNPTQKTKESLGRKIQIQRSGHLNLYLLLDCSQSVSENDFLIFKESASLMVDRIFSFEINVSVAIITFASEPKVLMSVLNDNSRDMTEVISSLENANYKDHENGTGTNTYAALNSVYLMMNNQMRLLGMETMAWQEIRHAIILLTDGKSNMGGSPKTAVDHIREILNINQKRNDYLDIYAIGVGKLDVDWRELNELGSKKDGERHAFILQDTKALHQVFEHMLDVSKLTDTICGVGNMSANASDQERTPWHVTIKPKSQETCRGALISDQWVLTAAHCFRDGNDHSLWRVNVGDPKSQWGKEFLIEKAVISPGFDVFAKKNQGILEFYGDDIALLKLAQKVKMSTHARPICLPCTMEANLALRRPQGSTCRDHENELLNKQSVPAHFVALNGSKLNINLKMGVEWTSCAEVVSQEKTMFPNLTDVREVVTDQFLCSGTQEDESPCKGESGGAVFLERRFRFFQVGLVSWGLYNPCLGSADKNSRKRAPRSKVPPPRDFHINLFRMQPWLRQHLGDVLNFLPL
Put plainly: ELISA.

Test [2] addresses T3, human complement component 2 (C2), purified protein (human, UniProt P06681 21-752).
T3 construct: mature; Purified human C2 (Complement Tech); called 'Full-length C2' in the ELISA; In the serum-based functional assays the C2 is that of normal human serum; also called human C2; full-length C2
T3 sequence (looked up): T2 chain
In words: SPR, Biacore T200, nanobody immobilised on a CM5 chip, human C2 2.97 to 248 nM as analyte, 1:1 Langmuir model.

Test [3] has as its target T3, human complement component 2 (C2), …. Put plainly: cell-based or functional assay.

B1: Clone 1B10 C2 nanobody (Nab1B10), monovalent, His-tagged (VHH)
VHH: QVQLQESGGGLVQAGGSLRLSCAASGHTFRSYYMGWFRQAPGKEREFVASISWTGGSTEYADSVKGRFTISRDNAKNTVYLQMNSLKPEDTAAYYCAADYSGDFLLSDLDSWGQGTQVTVSS
notes: Alpaca VHH expressed in E. coli BL21 from the pMES4 vector; single 15 kDa band on SDS-PAGE; also called NablBlO; Nabl BIO; not shown: His tag (monovalent form is 'His-tagged', purified on cobalt resin)
B1: in the test with C2b fragment of human C2, the binding result was “no binding”. The binding result in test [1] is “no binding”. In test [2], this molecule came in with a Kd of 3.03 nM, a koff of 0.000395 s⁻¹ and an on-rate constant (kon) of 131000 M⁻¹ s⁻¹. Also, in test [3], the “MicroVue CH50 Eq EIA (C5b-9 generation, classical pathway, normal human serum), EC50” value turned out to be 53 nM and the “classical complement pathway-mediated hemolytic assay (EShA, normal human serum), IC50” value is roughly 3 nM.
